The source of these data is US20120148571A1 (Ablynx, published 2012).

In the test the target is T1, human serum albumin (human, UniProt P02768 25-609).
T1 construct: also called HSA; humans serum albumin
The experiment in a line: SPR (Biacore), human serum albumin immobilized on CM5 chip, periplasmic Nanobody preparation injected in running buffer of pH 5, pH 6, pH 7 or HBS-EP+. (SPR reads the build-up and loss of mass on a sensor chip optically.)

Procedure: Human serum albumin is immobilized on a CM5 sensor chip surface via amine coupling using NHS/EDC for activation and ethanolamine for deactivation (Biacore amine coupling kit)
Approximately 1000 RU of cynomolgus and humans serum albumin respectively is immobilized. Experiments are performed at 25° C. […] This mixture is brought to pH7, pH6 and pH5 by adding HCl or NaOH (dependent on the pH of the mixture measured). Standard buffer HBS-EP+Periplasmic extracts or purified Nanobodies are diluted in running buffers of pH7, pH6 and pH5. The samples are injected for 1 min at a flow rate of 45 ul/min over the activated and reference surfaces. Those surfaces are regenerated with a 3 s pulse of glycine-HCl pH1.5+0.1% P20. Evaluation is done using Biacore T100 evaluation software.

B1: Nanobody 4A1 (VHH)
VHH: EVQLVESGGGLVQPEGSLRLSCRASGSIFSINTMGWYRQPPGKEREFVARIYPGITHYADSVKGRFTISRDNAKNTVYLQMNSLKPEDTAVYYCFYYYDDRNYWGEGTLVTVSS
notes: Injected as a periplasmic preparation of soluble Nanobody
Take B1: the binding result is reported as “binds”.
